Source: paper PMC9482650, “Quantitative fragmentomics allow affinity mapping of interactomes” (Nature Communications, 2022)

T1: APBA1_1, Q02410
T1 sequence (Q02410 651-752, limits assumed, looked up): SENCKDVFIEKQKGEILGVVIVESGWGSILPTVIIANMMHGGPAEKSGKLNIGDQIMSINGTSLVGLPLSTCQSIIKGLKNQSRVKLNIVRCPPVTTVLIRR

T2: APBA1_2, Q02410
T2 sequence (Q02410 742-832, limits assumed, looked up): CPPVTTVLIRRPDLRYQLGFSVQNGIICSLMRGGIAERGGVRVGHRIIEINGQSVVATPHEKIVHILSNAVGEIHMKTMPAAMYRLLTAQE

T3: ARHGAP21, Q5T5U3
T3 sequence (Q5T5U3 45-169, limits assumed, looked up): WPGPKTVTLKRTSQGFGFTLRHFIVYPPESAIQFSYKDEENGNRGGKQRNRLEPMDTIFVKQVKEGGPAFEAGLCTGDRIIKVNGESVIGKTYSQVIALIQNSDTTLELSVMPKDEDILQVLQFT

T4: ARHGEF11, O15085
T4 sequence (O15085 42-136, limits assumed, looked up): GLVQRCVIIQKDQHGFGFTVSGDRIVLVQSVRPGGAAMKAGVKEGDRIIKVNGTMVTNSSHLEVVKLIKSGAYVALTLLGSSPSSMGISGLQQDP

T5: LIN7C, Q9NUP9
T5 sequence (Q9NUP9 88-185, limits assumed, looked up): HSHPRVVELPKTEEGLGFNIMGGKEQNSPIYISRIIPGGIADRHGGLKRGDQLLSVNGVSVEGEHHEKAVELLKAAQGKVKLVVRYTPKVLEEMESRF

T6: LNX2_3, Q8N448
T6 sequence (Q8N448 463-564, limits assumed, looked up): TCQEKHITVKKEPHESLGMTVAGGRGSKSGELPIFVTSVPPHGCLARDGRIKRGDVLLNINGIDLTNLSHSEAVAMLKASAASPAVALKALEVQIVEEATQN

T7: LRRC7, Q96NW7
T7 sequence (Q96NW7 1440-1537, limits assumed, looked up): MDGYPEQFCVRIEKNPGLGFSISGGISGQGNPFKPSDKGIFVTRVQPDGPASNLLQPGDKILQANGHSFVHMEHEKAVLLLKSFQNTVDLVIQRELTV

T8: RAPGEF6, Q8TEU7
T8 sequence (Q8TEU7 525-625, limits assumed, looked up): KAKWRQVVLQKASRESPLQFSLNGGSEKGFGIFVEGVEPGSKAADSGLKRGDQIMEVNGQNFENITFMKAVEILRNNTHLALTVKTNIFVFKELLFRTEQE

T9: SHANK1, Q9Y566
T9 sequence (Q9Y566 658-767, limits assumed, looked up): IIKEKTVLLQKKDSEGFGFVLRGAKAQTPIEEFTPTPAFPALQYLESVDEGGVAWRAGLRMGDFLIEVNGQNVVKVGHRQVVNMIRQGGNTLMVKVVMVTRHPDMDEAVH

T10: TJP3_3, O95049
T10 sequence (O95049 375-456, limits assumed, looked up): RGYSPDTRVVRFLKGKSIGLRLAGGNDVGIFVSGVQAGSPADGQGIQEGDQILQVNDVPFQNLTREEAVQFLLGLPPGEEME

B1: SLC2A3, P11169 (peptide)
chain: EPAKETTTNV
B2: SLCO2B1, O94956 (peptide)
chain: PGKKPEDSRV

Biological target: T1, APBA1_1, Q02410
Assay: holdup assay
Parameters: key: below the threshold = too weak to quantify, mostly under pKd 3.1 to 4
Conditions: plain residues with an end cap or a label only (N-terminal biotin on a linker: ado-ado)

| Binder | pKd |
| --- | --- |
| B1 | below the threshold |
| B2 | below the threshold |

Biological target: T2, APBA1_2, Q02410
Assay: holdup assay
Parameters: key: below the threshold = too weak to quantify, mostly under pKd 3.1 to 4
Conditions: plain residues with an end cap or a label only (N-terminal biotin on a linker: ado-ado)

| Binder | pKd |
| --- | --- |
| B1 | 3.84 |
| B2 | below the threshold |

Biological target: T3, ARHGAP21, Q5T5U3
Assay: holdup assay
Parameters: key: below the threshold = too weak to quantify, mostly under pKd 3.1 to 4
Conditions: plain residues with an end cap or a label only (N-terminal biotin on a linker: ado-ado)

| Binder | pKd |
| --- | --- |
| B1 | 4.06 |
| B2 | 3.84 |

Biological target: T4, ARHGEF11, O15085
Assay: holdup assay
Parameters: key: below the threshold = too weak to quantify, mostly under pKd 3.1 to 4
Conditions: plain residues with an end cap or a label only (N-terminal biotin on a linker: ado-ado)

| Binder | pKd |
| --- | --- |
| B1 | 4 |
| B2 | 3.48 |

Biological target: DLG2_3, Q15700
Assay: holdup assay
Parameters: key: below the threshold = too weak to quantify, mostly under pKd 3.1 to 4
Conditions: plain residues with an end cap or a label only (N-terminal biotin on a linker: ado-ado)

| Binder | pKd |
| --- | --- |
| B1 | below the threshold |
| B2 | below the threshold |

Biological target: DLG4_1, P78352
Assay: holdup assay
Parameters: key: below the threshold = too weak to quantify, mostly under pKd 3.1 to 4
Conditions: plain residues with an end cap or a label only (N-terminal biotin on a linker: ado-ado)

Chain of DLG4_1, P78352 (P78352 62-152): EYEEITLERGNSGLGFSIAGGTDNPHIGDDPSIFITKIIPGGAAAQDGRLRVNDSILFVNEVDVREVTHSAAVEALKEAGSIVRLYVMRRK

| Binder | pKd |
| --- | --- |
| B1 | 4.12 |
| B2 | 3.83 |

Biological target: FRMPD2_1, Q68DX3
Assay: holdup assay
Parameters: key: below the threshold = too weak to quantify, mostly under pKd 3.1 to 4
Conditions: plain residues with an end cap or a label only (N-terminal biotin on a linker: ado-ado)

Chain of FRMPD2_1, Q68DX3 (Q68DX3 770-861): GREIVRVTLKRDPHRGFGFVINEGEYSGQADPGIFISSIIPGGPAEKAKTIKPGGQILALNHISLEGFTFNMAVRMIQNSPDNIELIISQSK

| Binder | pKd |
| --- | --- |
| B1 | below the threshold |
| B2 | below the threshold |

Biological target: FRMPD2_2, Q68DX3
Assay: holdup assay
Parameters: key: below the threshold = too weak to quantify, mostly under pKd 3.1 to 4
Conditions: plain residues with an end cap or a label only (N-terminal biotin on a linker: ado-ado)

Chain of FRMPD2_2, Q68DX3 (Q68DX3 944-1038): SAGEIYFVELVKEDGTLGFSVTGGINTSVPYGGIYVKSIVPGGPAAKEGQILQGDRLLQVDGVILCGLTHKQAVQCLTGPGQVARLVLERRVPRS

| Binder | pKd |
| --- | --- |
| B1 | 4.11 |
| B2 | below the threshold |

Biological target: GRID2IP_1, A4D2P6
Assay: holdup assay
Parameters: key: below the threshold = too weak to quantify, mostly under pKd 3.1 to 4
Conditions: plain residues with an end cap or a label only (N-terminal biotin on a linker: ado-ado)

Chain of GRID2IP_1, A4D2P6 (A4D2P6 1-87): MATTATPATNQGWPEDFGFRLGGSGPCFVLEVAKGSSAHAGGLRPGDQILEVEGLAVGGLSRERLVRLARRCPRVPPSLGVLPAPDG

| Binder | pKd |
| --- | --- |
| B1 | below the threshold |
| B2 | below the threshold |

Biological target: Inadl_2, Q8NI35
Assay: holdup assay
Parameters: key: below the threshold = too weak to quantify, mostly under pKd 3.1 to 4
Conditions: plain residues with an end cap or a label only (N-terminal biotin on a linker: ado-ado)

Chain of Inadl_2, Q8NI35 (Q8NI35 238-335): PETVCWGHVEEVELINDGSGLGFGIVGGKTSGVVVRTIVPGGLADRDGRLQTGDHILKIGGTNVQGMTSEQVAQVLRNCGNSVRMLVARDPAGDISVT

| Binder | pKd |
| --- | --- |
| B1 | below the threshold |
| B2 | below the threshold |

Biological target: Inadl_4, Q8NI35
Assay: holdup assay
Parameters: key: below the threshold = too weak to quantify, mostly under pKd 3.1 to 4
Conditions: plain residues with an end cap or a label only (N-terminal biotin on a linker: ado-ado)

Chain of Inadl_4, Q8NI35 (Q8NI35 547-651): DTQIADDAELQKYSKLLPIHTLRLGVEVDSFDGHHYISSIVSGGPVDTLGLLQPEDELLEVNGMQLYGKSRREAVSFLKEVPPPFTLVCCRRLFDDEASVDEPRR

| Binder | pKd |
| --- | --- |
| B1 | below the threshold |
| B2 | below the threshold |

Biological target: Inadl_8, Q8NI35
Assay: holdup assay
Parameters: key: below the threshold = too weak to quantify, mostly under pKd 3.1 to 4
Conditions: plain residues with an end cap or a label only (N-terminal biotin on a linker: ado-ado)

Chain of Inadl_8, Q8NI35 (Q8NI35 1425-1530): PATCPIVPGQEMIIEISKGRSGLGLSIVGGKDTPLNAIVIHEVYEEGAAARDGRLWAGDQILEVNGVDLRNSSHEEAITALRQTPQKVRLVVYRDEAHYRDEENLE

| Binder | pKd |
| --- | --- |
| B1 | 3.59 |
| B2 | below the threshold |

Biological target: LDB3, O75112
Assay: holdup assay
Parameters: key: below the threshold = too weak to quantify, mostly under pKd 3.1 to 4
Conditions: plain residues with an end cap or a label only (N-terminal biotin on a linker: ado-ado)

Chain of LDB3, O75112 (O75112 1-94): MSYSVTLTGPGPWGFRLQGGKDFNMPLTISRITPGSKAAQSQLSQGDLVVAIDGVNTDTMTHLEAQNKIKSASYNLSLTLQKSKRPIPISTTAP

| Binder | pKd |
| --- | --- |
| B1 | below the threshold |
| B2 | below the threshold |

Biological target: T5, LIN7C, Q9NUP9
Assay: holdup assay
Parameters: key: below the threshold = too weak to quantify, mostly under pKd 3.1 to 4
Conditions: plain residues with an end cap or a label only (N-terminal biotin on a linker: ado-ado)

| Binder | pKd |
| --- | --- |
| B1 | 4.05 |
| B2 | below the threshold |

Biological target: T6, LNX2_3, Q8N448
Assay: holdup assay
Parameters: key: below the threshold = too weak to quantify, mostly under pKd 3.1 to 4
Conditions: plain residues with an end cap or a label only (N-terminal biotin on a linker: ado-ado)

| Binder | pKd |
| --- | --- |
| B1 | below the threshold |
| B2 | below the threshold |

Biological target: T7, LRRC7, Q96NW7
Assay: holdup assay
Parameters: key: below the threshold = too weak to quantify, mostly under pKd 3.1 to 4
Conditions: plain residues with an end cap or a label only (N-terminal biotin on a linker: ado-ado)

| Binder | pKd |
| --- | --- |
| B1 | below the threshold |
| B2 | below the threshold |

Biological target: MAGI2_3, Q86UL8
Assay: holdup assay
Parameters: key: below the threshold = too weak to quantify, mostly under pKd 3.1 to 4
Conditions: plain residues with an end cap or a label only (N-terminal biotin on a linker: ado-ado)

Chain of MAGI2_3, Q86UL8 (Q86UL8 600-682): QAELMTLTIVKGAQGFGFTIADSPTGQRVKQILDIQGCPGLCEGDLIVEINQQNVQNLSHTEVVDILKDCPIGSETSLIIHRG

| Binder | pKd |
| --- | --- |
| B1 | below the threshold |
| B2 | below the threshold |

Biological target: MAGI2_4, Q86UL8
Assay: holdup assay
Parameters: key: below the threshold = too weak to quantify, mostly under pKd 3.1 to 4
Conditions: plain residues with an end cap or a label only (N-terminal biotin on a linker: ado-ado)

Chain of MAGI2_4, Q86UL8 (Q86UL8 772-865): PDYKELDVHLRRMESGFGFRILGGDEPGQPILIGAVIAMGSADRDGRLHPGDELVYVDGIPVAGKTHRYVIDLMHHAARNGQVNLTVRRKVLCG

| Binder | pKd |
| --- | --- |
| B1 | 3.57 |
| B2 | below the threshold |

Biological target: MAGI3_2, Q5TCQ9
Assay: holdup assay
Parameters: key: below the threshold = too weak to quantify, mostly under pKd 3.1 to 4
Conditions: plain residues with an end cap or a label only (N-terminal biotin on a linker: ado-ado)

Chain of MAGI3_2, Q5TCQ9 (Q5TCQ9 398-503): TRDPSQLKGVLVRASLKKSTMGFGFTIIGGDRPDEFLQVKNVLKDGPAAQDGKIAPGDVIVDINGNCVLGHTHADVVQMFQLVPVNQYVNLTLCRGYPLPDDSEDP

| Binder | pKd |
| --- | --- |
| B1 | below the threshold |
| B2 | 3.54 |

Biological target: NHERF4_1, Q86UT5-2
Assay: holdup assay
Parameters: key: below the threshold = too weak to quantify, mostly under pKd 3.1 to 4
Conditions: plain residues with an end cap or a label only (N-terminal biotin on a linker: ado-ado)

Chain of NHERF4_1, Q86UT5-2 (Q86UT5 other isoform, or with tags, fused parts or gaps): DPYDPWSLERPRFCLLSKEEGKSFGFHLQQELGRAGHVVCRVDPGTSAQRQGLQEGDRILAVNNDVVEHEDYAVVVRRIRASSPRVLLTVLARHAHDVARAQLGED

| Binder | pKd |
| --- | --- |
| B1 | below the threshold |
| B2 | below the threshold |

Biological target: NHERF4_2, Q86UT5
Assay: holdup assay
Parameters: key: below the threshold = too weak to quantify, mostly under pKd 3.1 to 4
Conditions: plain residues with an end cap or a label only (N-terminal biotin on a linker: ado-ado)

Chain of NHERF4_2, Q86UT5 (Q86UT5 220-308): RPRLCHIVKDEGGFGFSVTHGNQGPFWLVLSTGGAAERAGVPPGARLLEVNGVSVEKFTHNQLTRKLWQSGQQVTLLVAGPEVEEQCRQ

| Binder | pKd |
| --- | --- |
| B1 | 3.56 |
| B2 | below the threshold |

Biological target: PARD3_3, Q8TEW0
Assay: holdup assay
Parameters: key: below the threshold = too weak to quantify, mostly under pKd 3.1 to 4
Conditions: plain residues with an end cap or a label only (N-terminal biotin on a linker: ado-ado)

Chain of PARD3_3, Q8TEW0 (Q8TEW0 582-685): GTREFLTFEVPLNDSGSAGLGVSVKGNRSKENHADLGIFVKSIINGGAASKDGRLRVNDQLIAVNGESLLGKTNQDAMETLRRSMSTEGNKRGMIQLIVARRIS

| Binder | pKd |
| --- | --- |
| B1 | below the threshold |
| B2 | below the threshold |

Biological target: PDLIM1, O00151
Assay: holdup assay
Parameters: key: below the threshold = too weak to quantify, mostly under pKd 3.1 to 4
Conditions: plain residues with an end cap or a label only (N-terminal biotin on a linker: ado-ado)

Chain of PDLIM1, O00151 (O00151 1-87): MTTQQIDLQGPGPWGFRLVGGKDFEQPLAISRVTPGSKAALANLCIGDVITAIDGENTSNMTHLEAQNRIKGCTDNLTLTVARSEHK

| Binder | pKd |
| --- | --- |
| B1 | below the threshold |
| B2 | below the threshold |

Biological target: PTPN3, P26045
Assay: holdup assay
Parameters: key: below the threshold = too weak to quantify, mostly under pKd 3.1 to 4
Conditions: plain residues with an end cap or a label only (N-terminal biotin on a linker: ado-ado)

Chain of PTPN3, P26045 (P26045 505-587): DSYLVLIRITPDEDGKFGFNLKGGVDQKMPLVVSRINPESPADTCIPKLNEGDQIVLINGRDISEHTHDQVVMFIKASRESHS

| Binder | pKd |
| --- | --- |
| B1 | 4.49 |
| B2 | below the threshold |

Biological target: T8, RAPGEF6, Q8TEU7
Assay: holdup assay
Parameters: key: below the threshold = too weak to quantify, mostly under pKd 3.1 to 4
Conditions: plain residues with an end cap or a label only (N-terminal biotin on a linker: ado-ado)

| Binder | pKd |
| --- | --- |
| B1 | below the threshold |
| B2 | below the threshold |

Biological target: SCRIB_2, Q14160
Assay: holdup assay
Parameters: key: below the threshold = too weak to quantify, mostly under pKd 3.1 to 4
Conditions: plain residues with an end cap or a label only (N-terminal biotin on a linker: ado-ado)

Chain of SCRIB_2, Q14160 (Q14160 857-960): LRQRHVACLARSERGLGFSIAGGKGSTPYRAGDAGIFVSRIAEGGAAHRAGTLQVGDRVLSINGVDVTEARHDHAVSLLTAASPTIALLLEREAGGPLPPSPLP

| Binder | pKd |
| --- | --- |
| B1 | 3.68 |
| B2 | below the threshold |

Biological target: T9, SHANK1, Q9Y566
Assay: holdup assay
Parameters: key: below the threshold = too weak to quantify, mostly under pKd 3.1 to 4
Conditions: plain residues with an end cap or a label only (N-terminal biotin on a linker: ado-ado)

| Binder | pKd |
| --- | --- |
| B1 | 3.68 |
| B2 | below the threshold |

Biological target: T10, TJP3_3, O95049
Assay: holdup assay
Parameters: key: below the threshold = too weak to quantify, mostly under pKd 3.1 to 4
Conditions: plain residues with an end cap or a label only (N-terminal biotin on a linker: ado-ado)

| Binder | pKd |
| --- | --- |
| B1 | below the threshold |
| B2 | below the threshold |
